Assay results taken from US20120244171A1 (IMMUNOGEN, published 2012).

Target: human folate receptor 1 (human, UniProt P15328 25-234)
Assay: cell-based or functional assay

human folate receptor 1, sequence (P15328 25-234): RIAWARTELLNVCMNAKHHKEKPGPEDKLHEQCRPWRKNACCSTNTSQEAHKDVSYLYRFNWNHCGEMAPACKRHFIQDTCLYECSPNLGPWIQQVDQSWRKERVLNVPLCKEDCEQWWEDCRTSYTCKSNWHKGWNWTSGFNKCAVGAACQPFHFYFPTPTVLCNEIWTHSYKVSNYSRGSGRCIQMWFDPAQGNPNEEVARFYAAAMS

B1: huFOLR1-SPDB-1f conjugate (antibody, human IgG1, kappa, V domains shown)
VH: QVQLVQSGAEVVKPGASVKISCKASGYTFTGYFMNWVKQSPGQSLEWIGRIHPYDGDTFYNQKFQGKATLTVDKSSNTAHMELLSLTSEDFAVYYCTRYDGSRAMDYWGQGTTVTVSS
VL: DIVLTQSPLSLAVSLGQPAIISCKASQSVSFAGTSLMHWYHQKPGQQPRLLIYRASNLEAGVPDRFSGSGSKTDFTLTISPVEAEDAATYYCQQSREYPYTFGGGTKLEIKR
modifications: compound 1f linked through the SPDB linker; positions not given
  fold loss of cytotoxic potency when blocked with unconjugated antibody: 40 fold
  fold reduction of cytotoxic effect on KB cells by an excess of unconjugated huFOLR1 antibody: > 40 fold
  in vitro cytotoxicity IC50 on antigen positive KB cells: 0.055 nM
